Test results: PMC6993865 (Biochemical Journal, 2020)
Values joined by “and” are separate entries in the source; they are usually repeats but may differ in a detail not shown here. Identical values can stand only once.

Molecular target: T1, chymotrypsin-treated recombinant P. falciparum SUB1 (P. falciparum, UniProt Q8I0V0 218-688)
T1 construct: subtilisin-like protease SUB1, P. falciparum, PF3D7_0507500; recombinant, chymotrypsin-treated; also called rPfSUB1; PfSUB1
T1 sequence: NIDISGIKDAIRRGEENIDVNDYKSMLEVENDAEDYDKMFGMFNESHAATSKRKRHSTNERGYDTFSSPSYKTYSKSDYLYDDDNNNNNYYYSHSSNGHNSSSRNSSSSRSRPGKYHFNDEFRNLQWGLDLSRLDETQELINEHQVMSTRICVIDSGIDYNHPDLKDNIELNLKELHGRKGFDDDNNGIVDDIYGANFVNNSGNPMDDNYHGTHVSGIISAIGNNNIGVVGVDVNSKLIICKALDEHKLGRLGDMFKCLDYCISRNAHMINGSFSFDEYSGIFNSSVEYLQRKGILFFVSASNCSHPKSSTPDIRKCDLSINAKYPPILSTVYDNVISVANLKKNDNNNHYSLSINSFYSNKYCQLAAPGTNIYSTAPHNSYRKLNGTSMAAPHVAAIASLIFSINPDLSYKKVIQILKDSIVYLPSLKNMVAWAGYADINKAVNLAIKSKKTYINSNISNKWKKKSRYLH
Test: enzyme inhibition kinetics (fluorogenic peptide substrate); rSUB1-ProM (7.81-250 nM final) added to ongoing hydrolysis of SERA4st1F-6R12 (0.1 µM, well below Km) by rPfSUB1 (0.045 U in 100 µl); 25 mM Tris-HCl pH 8.2, 25 mM CHAPS, 12 mM CaCl2; 21°C; apparent tight-binding inhibition constant, Ki(app) ~ Ki
Settings: both partners purified

B1: recombinant Plasmodium falciparum SUB1-ProM (SUB1 propeptide mimic), GST-free (natural protein)
chain: QVTPAGTVLNSNSALISRRINRRKMKNCNNNDLLKVLKMETTYNELPAHNLLMSSKNDINKLFDYINKNEELSKLMNSCGTYVYLKYLGVVIFSIKENVQISHLSEFIQYLLNKNVCIEFNQNVML
notes: SUB1-ProM, P. falciparum 3D7, PF3D7_0507400, residues 28-153 of the 153-residue protein (lacks the predicted 27-residue signal peptide); synthetic gene; also called rSUB1-ProM; PfSUB1-ProM; source: E. coli BL21(R2), purified (Glutathione Sepharose 4B, PreScission cleavage, Superdex 200)
Ki: 5.67 nM and 5.34 nM
